US9364516B2, “Treatment of fibrosis-related disorders using fibronectin binding proteins and polypeptides” (priority 2010, dated 2016)

Tests used:
[1] = test system: fibronectin matrix assembly; experiment: Inhibition of fibronectin matrix assembly in cell culture; format: cell-based; conditions: cell culture experiments
[2] = test system: left carotid artery of FVB mice; experiment: Carotid ligation model, quantitative immunohistochemistry; format: in vivo, mouse
Description: Sections selected from the first millimeter of the carotid artery in each group were used for immunohistochemistry (IHC). Endogenous peroxidase activity was blocked with 3% H2O2, followed by incubation with Dako serum-free blocking solution (Dako; Glostrup, Denmark). The primary antibodies used were: polyclonal anti-fibronectin (Chemicon/Millipore, Billerica, Mass.), polyclonal anti-collagen type I (LF-67; a gift from Dr. Fisher, NIH, Bethesda, Md.), monoclonal anti-proliferating cell nuclear antigen (PCNA) (Sigma, St. Louis, Mo.), polyclonal anti-smooth muscle myosin heavy chain (SMMHC) (Biomedical Technologies Inc., Stoughton, Mass.), monoclonal smooth muscle-actin (SM-actin) (Dako), anti-leukocyte common antigen, CD45 (BD Pharmingen, San Jose, Calif.), monoclonal anti-intercellular adhesion molecule-1 (ICAM-1) (BD Pharmingen), and polyclonal anti-vascular cell adhesion molecule-1 (VCAM-1) (Santa Cruz Biotechnology, Santa Cruz, Calif.). Antigen retrieval for anti-fibronectin and anti-collagen type I antibodies was performed by incubating sections with proteinase K in 0.05M Tris-HCL buffer. Antigen retrieval for CD 45 antibody was performed by incubating sections with 10 mM citrate buffer (pH=6) at 120° C. Sections were then incubated with appropriate biotinylated secondary antibodies followed by avidin-biotin immunoperoxidase system (Vector Laboratories, Burlingame, Calif.). Liquid DAB Substrate Chromogen system (Dako) or Vector Red (Vector) was used for detection. PCNA, CD45, ICAM-1, and VCAM-1-immunostained sections were counterstained with hematoxylin.
Quantitative IHC analysis was performed using Image-Pro Plus software. Data from 3-5 mice were averaged, and the average values ±s.e.m. determined. For fibronectin, collagen type I, SMMHC, and SMα-actin, color digital images were captured using a 40× objective and transformed into gray scale. Sixteen fields of view of equal size per section in the media or adventitia were randomly chosen, and the mean of the optical densities from the sixteen fields of view was determined. Three sections were analyzed per animal. For quantitative comparison of leukocyte infiltration and cell adhesion molecule expression, images were acquired using a 60× objective. The CD45, ICAM-1, and VCAM-1-positive areas were obtained using an automated programmed segmentation procedure in ImagePro. The intima plus media or adventitial regions were traced manually. The percent of the positively stained area to the total traced area was determined. For evaluation of proliferating cells, the percent of PCNA (+) cells to total cells was determined by counting cell numbers in PCNA-stained sections that had been counterstained with hematoxylin. The percent positive cells is reported as the proliferation index. To determine the SMC density, sections were stained with hematoxylin, and cells present in the media were counted. The data is expressed as number of cells/μm^2.
Blood flow in the left carotid artery of 10-week-old FVB/NJ (FVB) mice was reduced by ligating the external and internal carotid arterial branches as described (Korshunov et al., “Flow-Induced Vascular Remodeling in the Mouse: A Model for Carotid Intima-Media Thickening,” Arterioscler. Thromb. Vasc. Biol. 23:2185-2191 (2003), which is hereby incorporated by reference in its entirety). Mice were anesthetized with an intraperitoneal injection of ketamine (80 mg/kg) and xylazine (5 mg/kg) as described in the above-cited referenced. The left common carotid artery was dissected free of the surrounding connective tissue and 50 μL of F-127 pluronic gel (BASF) containing 20 μmol/L pUR4 or III-11C was applied around the carotid artery. […]

[3] = test system: mice; experiment: Dimethylnitrosamine (DMN) induced liver fibrosis; format: in vivo, mouse
Description: Collagen content in the liver of mice was measured by quantitating hydroxyproline levels (FIG. 17A). Treatment groups were DMN treated mice that were post treated with pUR4 or control III-11C peptide, DMN without peptide, and saline treated control mice. Fibronectin content in the liver of mice was assessed by immunohistochemistry of liver sections using a fibronectin antibody (FIG. 17B). Inflammatory cell infiltration into the liver was assessed by quantitating the CD45 positive cells per unit area (FIG. 17C). Sequential model (FIGS. 17A, 17B); Simultaneous model (FIG. 17C). n=3 in each group.
Liver fibrosis was induced in mice by administration of dimethylnitrosamine (DMN) for 4 weeks as previously described (Yoshida et al., “SOCS1 is a Suppressor of Liver Fibrosis and Hepatitis-Induced Carcinogenesis,” J. Exp. Med. 199:1701-1707 (2004)). This is a well established model of liver fibrosis and some of the key pathological features that develop in DMN induced fibrosis are similar to those seen in humans with liver fibrosis (Wu et al., “Animal Models of Liver Fibrosis,” Scand. J. Gastroenterol. 31:1137-1143 (1996); Jenkins et al., “A Dimethylnitrosamine-Induced Model of Cirrhosis and Portal Hypertension in the Rat,” J. Hepatol. 1:489-499 (1985), which are hereby incorporated by reference in their entirety). pUR4 was either administered for the last 10 days of DMN treatment (simultaneous treatment regimen), or for 14 days following cessation of DMN treatment (sequential treatment regimen). The latter model was performed to determine whether the peptide is effective when administered after fibrosis is established.
Dimethylnitrosamine (DMN) will be used to induce liver injury and fibrosis in mice (10 mg/kg body weight, 3×/week for 4 weeks) as described in Example 16. The experimental groups will include: 1) DMN alone; 2) DMN+pUR4 peptide; and 3) DMN+control peptide. Non DMN-treated control animals will receive i.p. injections of 0.9% saline plus: 4) pUR4; or 5) the control peptide. Two treatment strategies will be used, as described in Example 16. In the simultaneous treatment strategy, peptides will be administered daily during the last 10 days of DMN treatment. This will allow assessment of pUR4 on preventing fibrosis development. In the sequential treatment strategy, DMN will be injected for 4 weeks. Peptides will then be administered daily for 14 days in the absence of DMN. This will allow assessment of pUR4 on preventing fibrosis progression.

[4] = animals treated in the absence of injury for up to 2 weeks
[5] = sequential treatment: 14 days following cessation of DMN, 20 mg/kg/d

B1: pUR4: 49-mer peptide derived from the bacterial F1 adhesin, His tagged, SEQ ID NO:1; class I fibronectin polymerization inhibitor (peptide)
chain: MRGSHHHHHHGSKDQSPLAGESGETEYITEVYGNQQNPVDIDKKLPNETGFSGNMVETEDTKLN
modifications: His tag; Bacterial adhesin derived peptide pUR4
- concentration effective at inhibiting fibronectin matrix assembly [1]: 50 to 100 nM
- accumulation of collagen I and fibronectin in the media and adventitia ([2]; 7 and 14 days after surgery, vs control animals): dramatic reduction
- SMC dedifferentiation (SM α-actin and SM myosin heavy chain staining in the media) ([2]; 7 days after ligation): prevented
- adhesion molecule expression (ICAM-1 and VCAM-1 levels in the vessel wall) ([2]; 7 days after ligation): dramatic decrease
- decrease of leukocyte (CD45) infiltration into the intima, media, and adventitia ([2]; 7 days after surgery): 80%
- increased fibronectin deposition ([2]; 7 days after surgery): totally prevented
- prevention of increase in cell density in the media ([2]; 7 days after surgery): 75%
- cell density in the media ([2]; 7 days after surgery, ligated 6.7×10^−3, sham 5.0×10^−3): 5.3×10^−3 cells/mm^2
- reduction in cell proliferation (PCNA) in the adventitia ([2]; 7 days post ligation): 61%
- reduction in cell proliferation (PCNA) in the intima-media ([2]; 7 days post ligation): 70%
- fibronectin and collagen levels vs control peptide-treated animals ([2]; 14 days after surgery): still decreased
- adverse effects [3, 4]: do not show any adverse effects
- decrease in the normal levels of ECM fibronectin or collagen I [3, 4]: do not show
- inflammation in the liver ([3]; sequential treatment model): trend towards reduced
- collagen I content in the liver (hydroxyproline) [3, 5]: reduced
- fibronectin content in the liver [3, 5]: reduced
- infiltration of immune cells (CD45) into the liver ([3]; simultaneous treatment regimen): significantly reduced
